Measurements taken from US20180163218.

Legend:
Test in all cases: cell_activity
[1] = tested on: eZFN4 zinc finger nuclease (FokI); details: soybean F1, AtUbi3 promoter; chimeric 4.43%; with CsVMV promoter 0.00% complete, 1.58% chimeric
[2] = tested on: eZFN4-HF zinc finger nuclease (high fidelity FokI); details: soybean F1, AtUbi10 promoter; chimeric excision 10.68%
[3] = tested on: eZFN2 zinc finger nuclease (FokI); details: maize; two identical sites flanking aad-1 cassette; 23 of 621 plants
[4] = tested on: eZFN14 zinc finger nuclease (FokI); details: soybean F1, CsVMV promoter; complete excision 0.00%

GCCTTTTGCAGTTTATCTCTATGCCCGGGACAAGTG (double strand) [eZFN4 binding site]
activity (% complete excision) [1]: 0.13
activity (% complete excision) [2]: 1.23

AAGACTCCCGCCCATCTCTCTATGCCCGGGACAAGTG (double strand) [eZFN2 binding site]
activity (% F1 plants with aad-1 excised) [3]: 3.7

TGGTCATCCTCATCCTGTCTATGCCCGGGACAAGTG (double strand) [eZFN14 binding site]
activity (% chimeric excision) [4]: 2.82
